Source: US20260209789A1, “TRIGGER-INDUCIBLE MRNA CIRCULARIZATION” (WESTLAKE UNIVERSITY, priority 2022, published 2026)

How the values were obtained:
[1] = system: BCR-ABL; test: Co-immunoprecipitation: BCR-ABL-mediated association of STIF components; assay type: binding, human; conditions: HEK-293 cells, 48 h
[2] = system: nNS3; conditions: different amounts of overexpressed nNS3, 48 h
[3] = biological target: T1, (DocS)3 (Acetivibrio thermocellus, UniProt A3DH67); test: Coh2/DocS-based STIF protein sensor for cytosolic (DocS)3; conditions: different amounts of pSL244, 48 h
T1 sequence (A3DH67 with tags, fused parts or gaps): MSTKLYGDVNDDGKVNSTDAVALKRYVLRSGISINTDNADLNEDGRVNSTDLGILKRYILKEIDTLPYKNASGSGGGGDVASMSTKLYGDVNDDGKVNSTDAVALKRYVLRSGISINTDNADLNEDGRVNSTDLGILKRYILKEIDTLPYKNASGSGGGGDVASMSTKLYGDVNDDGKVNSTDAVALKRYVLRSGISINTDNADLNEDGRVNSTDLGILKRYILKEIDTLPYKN

[4] = system: STIF-specific target gene mRNA; test: Translational regulation by constitutive bipartite STIF reconstitution (SEAP, NanoLuc) in HEK-293 cells; assay type: cell-based, human; conditions: 48 h
Text: FIG. 8. Translational regulation by spontaneous assembly of bipartite STIFs. (A) Translational regulation through constitutive STIF reconstitution. […] Transfection of pcDNA3.1 (+) instead of NSP3-fusion proteins was used as a negative control. […] (B) Compatibility of STIF-mediated translational regulation with split-complementation approaches. […] For (−) conditions, pcDNA3.1 (+) was transfected instead of expression vectors.
FIG. 9. Translational regulation through constitutive Coh2/DocS-mediated STIF reconstitution. (A) Site-specific translational activation by eIFBP overexpression. HEK-293 cells were (co-) transfected with an expression vector for SEAP-mRNA containing 24 tandem C/D-box-(left panel, pSL355) or MS2-box repeats in the 3′-UTR (right panel, pSL468), constitutive expression vectors for L7Ae (left) or MCP (right) fused to Coh2 (L7Ae-Coh2, pSL83; MCP-Coh2, pSL674) or EGFP (L7Ae-EGFP, pSL1078; MCP-EGFP, pSL435) and constitutive expression vectors for various chimeric Coh2-specific DocS-containing eIFBP fusions (PABP-DocS, pSL47; DocS-eIF4G, pSL87; DocS-eIF4E, pLZ312; DocS-NSP3, pSL66; DocS-VPg, pLZ311). Transfection of pcDNA3.1 (+) instead of DocS- or MCP-expressing vectors was used as a negative control. […] SEAP (left) and NanoLuc levels in culture supernatants (right) were quantified at 48 h post-transfection. […]

[5] = system: GNCR: NS3a system; test: Grazoprevir-inducible SEAP translation in HEK-293 cells (fold-change, dose-dependence, kinetics vs transcriptional switch); conditions: three tandem GNCR and NS3a repeats
Text: Optimization of an L7Ae-based grazoprevir-inducible gene switch. (A) Translational regulation by grazoprevir-dependent STIF association. […] (B) Translational regulation by different grazoprevir-dependent NSP3-fusion proteins. […] (C) Translational regulation by different grazoprevir-dependent L7Ae-fusion proteins.
Optimized L7Ae- and MCP-based grazoprevir-inducible gene switch in mammalian cells. (A) Optimized grazoprevir-inducible regulation of SEAP translation. […] (B, C) Dose-dependent grazoprevir-inducible SEAP expression.
Comparative analysis of gene switches based on STIF-based translation and state-of-the-art transcription-centered designs. (A) Kinetics of grazoprevir-inducible SEAP expression. […] (B) Endpoint performance of grazoprevir-induced translational and transcriptional gene switch switches.

[6] = system: endogenous RNA (GAPDH); test: RIP-qPCR: endogenous RNA binding of PABP- and NSP3-fusion proteins; set-up: species or system human; conditions: 3×FLAG-tagged L7Ae-NSP3 vs PABP-L7Ae, 48 h
Text: RNA immunoprecipitation (RIP)-qPCR.

BCR-ABL, sequence (as listed by the source): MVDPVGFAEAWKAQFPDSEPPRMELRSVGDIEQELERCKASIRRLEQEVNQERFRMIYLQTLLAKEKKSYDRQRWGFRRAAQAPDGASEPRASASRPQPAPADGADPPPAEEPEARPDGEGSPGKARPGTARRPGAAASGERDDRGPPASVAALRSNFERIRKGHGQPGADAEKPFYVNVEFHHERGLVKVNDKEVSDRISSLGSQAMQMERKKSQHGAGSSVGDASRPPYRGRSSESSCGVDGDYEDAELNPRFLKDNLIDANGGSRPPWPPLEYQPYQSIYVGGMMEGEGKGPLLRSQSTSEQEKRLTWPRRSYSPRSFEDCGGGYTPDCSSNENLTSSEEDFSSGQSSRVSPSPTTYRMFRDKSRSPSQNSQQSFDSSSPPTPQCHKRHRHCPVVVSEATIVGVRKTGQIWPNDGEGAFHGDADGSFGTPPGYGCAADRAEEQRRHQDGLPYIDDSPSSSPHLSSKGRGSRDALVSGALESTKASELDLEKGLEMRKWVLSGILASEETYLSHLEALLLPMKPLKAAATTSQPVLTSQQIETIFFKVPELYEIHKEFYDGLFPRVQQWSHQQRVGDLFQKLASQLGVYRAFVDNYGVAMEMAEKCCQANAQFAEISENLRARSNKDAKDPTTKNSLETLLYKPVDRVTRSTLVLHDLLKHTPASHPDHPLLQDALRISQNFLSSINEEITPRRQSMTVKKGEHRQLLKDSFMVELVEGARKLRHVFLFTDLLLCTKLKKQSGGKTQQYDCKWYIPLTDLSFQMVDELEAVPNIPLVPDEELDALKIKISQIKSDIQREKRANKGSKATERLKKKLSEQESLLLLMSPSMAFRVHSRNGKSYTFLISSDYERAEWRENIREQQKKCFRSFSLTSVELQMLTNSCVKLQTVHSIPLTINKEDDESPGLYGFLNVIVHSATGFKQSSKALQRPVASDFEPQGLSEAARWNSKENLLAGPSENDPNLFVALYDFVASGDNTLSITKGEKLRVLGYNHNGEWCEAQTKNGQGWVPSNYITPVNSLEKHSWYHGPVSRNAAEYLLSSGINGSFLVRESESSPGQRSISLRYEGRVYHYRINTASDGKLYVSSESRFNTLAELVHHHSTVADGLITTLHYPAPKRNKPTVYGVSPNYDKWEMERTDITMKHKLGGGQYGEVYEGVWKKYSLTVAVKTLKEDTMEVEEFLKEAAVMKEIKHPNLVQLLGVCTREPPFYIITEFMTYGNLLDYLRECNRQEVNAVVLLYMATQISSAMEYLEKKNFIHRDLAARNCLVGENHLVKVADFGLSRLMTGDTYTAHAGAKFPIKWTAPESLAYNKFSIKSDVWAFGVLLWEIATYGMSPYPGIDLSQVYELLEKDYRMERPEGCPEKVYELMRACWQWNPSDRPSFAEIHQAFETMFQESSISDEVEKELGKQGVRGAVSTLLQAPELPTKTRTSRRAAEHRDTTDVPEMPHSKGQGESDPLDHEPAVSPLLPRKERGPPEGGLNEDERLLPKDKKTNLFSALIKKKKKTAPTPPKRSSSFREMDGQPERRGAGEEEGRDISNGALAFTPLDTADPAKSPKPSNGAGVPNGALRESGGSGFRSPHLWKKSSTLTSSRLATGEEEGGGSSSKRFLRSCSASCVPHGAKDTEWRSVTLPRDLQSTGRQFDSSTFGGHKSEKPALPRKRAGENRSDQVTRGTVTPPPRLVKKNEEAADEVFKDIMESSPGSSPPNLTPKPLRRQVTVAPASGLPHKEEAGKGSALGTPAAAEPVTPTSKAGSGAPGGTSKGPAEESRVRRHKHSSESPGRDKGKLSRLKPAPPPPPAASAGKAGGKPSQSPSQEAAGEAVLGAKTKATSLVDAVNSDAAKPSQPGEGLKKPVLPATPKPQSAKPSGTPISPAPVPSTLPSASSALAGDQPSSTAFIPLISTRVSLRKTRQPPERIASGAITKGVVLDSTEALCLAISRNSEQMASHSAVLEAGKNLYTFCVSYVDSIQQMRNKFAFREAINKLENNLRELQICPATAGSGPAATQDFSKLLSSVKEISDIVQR

B1: CCmut3-NSP3: bipartite STIF regulator (protein)
chain: MVDPVGFAEAWKAQFPDSEPPRMELRSVGDIEQELERAEARIRRNEQRVNQERFRMIYLETLLAKEKKSYDRASGSGGGGDVASMLKMESTQQMASSIINTSFEAAVVAATSTLELMGIQYDYNEVYTRVKSKFDYVMDDSGVKNNLLGKAATIDQALNGKFGSAARNRNWMADTRTTARLDEDVNKLRMMLSSKGIDQKMRVLNACFNVKRVPGKSSSIIKCTRLMRDKIERGEVEVDDSFVEEKMEVDTIDWKSRYEQLEKRFESLKQRVNEKYTSWVQKAKKVNENMYSLQNVISQQQSQIADLQNYCNKLEVDLQNKISSLVSSVEWYLKSMELPDEIKTDIEQQLNSIDVINPINAIDDFESLIRNIILDYDRIFLMFKGLMRQCNYEYTYE
assembly of STIF components upon BCR-ABL overexpression (co-IP) [1]: triggers assembly

B2: (scFv162)3-NSP3: bipartite STIF regulator (protein)
chain: MAEVQVQQSGAELVRSGASVKLSCTASGFNIKDYYMHWVKQRPEQGLEWIGWIDPANGNTKYDPKFQGKATITADTSSNTAYLQLSSLTSEDTAVYYCARWDWYFDVWGAGTTVTVSSGGGGSGGGGSGGGGSVFASGSGGGGDVASMAEVQVQQSGAELVRSGASVKLSCTASGFNIKDYYMHWVKQRPEQGLEWIGWIDPANGNTKYDPKFQGKATITADTSSNTAYLQLSSLTSEDTAVYYCARWDWYFDVWGAGTTVTVSSGGGGSGGGGSGGGGSVFASGSGGGGDVASMAEVQVQQSGAELVRSGASVKLSCTASGFNIKDYYMHWVKQRPEQGLEWIGWIDPANGNTKYDPKFQGKATITADTSSNTAYLQLSSLTSEDTAVYYCARWDWYFDVWGAGTTVTVSSGGGGSGGGGSGGGGSVFASGSGGGGDVASMLKMESTQQMASSIINTSFEAAVVAATSTLELMGIQYDYNEVYTRVKSKFDYVMDDSGVKNNLLGKAATIDQALNGKFGSAARNRNWMADTRTTARLDEDVNKLRMMLSSKGIDQKMRVLNACFNVKRVPGKSSSIIKCTRLMRDKIERGEVEVDDSFVEEKMEVDTIDWKSRYEQLEKRFESLKQRVNEKYTSWVQKAKKVNENMYSLQNVISQQQSQIADLQNYCNKLEVDLQNKISSLVSSVEWYLKSMELPDEIKTDIEQQLNSIDVINPINAIDDFESLIRNIILDYDRIFLMFKGLMRQCNYEYTYE
activation of translation of L7Ae-specific target mRNA (SEAP) [2]: in a strict nNS3-dependent manner

B3: (Coh2)3-NSP3: bipartite STIF regulator (protein)
chain: MVVVEIGKVTGSVGTTVEIPVYFRGVPSKGIANCDFVFRYDPNVLEIIGIDPGDIIVDPNPTKSFDTAIYPDRKIIVFLFAEDSGTGAYAITKDGVFAKIRATVKSSAPGYITFDEVGGFADNDLVEQKVSFIDGGVNVASGSGGGGDVASVVVEIGKVTGSVGTTVEIPVYFRGVPSKGIANCDFVFRYDPNVLEIIGIDPGDIIVDPNPTKSFDTAIYPDRKIIVFLFAEDSGTGAYAITKDGVFAKIRATVKSSAPGYITFDEVGGFADNDLVEQKVSFIDGGVNVASGSGGGGDVASVVVEIGKVTGSVGTTVEIPVYFRGVPSKGIANCDFVFRYDPNVLEIIGIDPGDIIVDPNPTKSFDTAIYPDRKIIVFLFAEDSGTGAYAITKDGVFAKIRATVKSSAPGYITFDEVGGFADNDLVEQKVSFIDGGVNVASGSGGGGDVASMLKMESTQQMASSIINTSFEAAVVAATSTLELMGIQYDYNEVYTRVKSKFDYVMDDSGVKNNLLGKAATIDQALNGKFGSAARNRNWMADTRTTARLDEDVNKLRMMLSSKGIDQKMRVLNACFNVKRVPGKSSSIIKCTRLMRDKIERGEVEVDDSFVEEKMEVDTIDWKSRYEQLEKRFESLKQRVNEKYTSWVQKAKKVNENMYSLQNVISQQQSQIADLQNYCNKLEVDLQNKISSLVSSVEWYLKSMELPDEIKTDIEQQLNSIDVINPINAIDDFESLIRNIILDYDRIFLMFKGLMRQCNYEYTYE
detection of cytosolic (DocS)3 (SEAP) [3]: in a dose-dependent manner

B4: (DocS)3-NSP3: bipartite STIF regulator (protein)
chain: MSTKLYGDVNDDGKVNSTDAVALKRYVLRSGISINTDNADLNEDGRVNSTDLGILKRYILKEIDTLPYKNASGSGGGGDVASMSTKLYGDVNDDGKVNSTDAVALKRYVLRSGISINTDNADLNEDGRVNSTDLGILKRYILKEIDTLPYKNASGSGGGGDVASMSTKLYGDVNDDGKVNSTDAVALKRYVLRSGISINTDNADLNEDGRVNSTDLGILKRYILKEIDTLPYKNASGSGGGGDVASMLKMESTQQMASSIINTSFEAAVVAATSTLELMGIQYDYNEVYTRVKSKFDYVMDDSGVKNNLLGKAATIDQALNGKFGSAARNRNWMADTRTTARLDEDVNKLRMMLSSKGIDQKMRVLNACFNVKRVPGKSSSIIKCTRLMRDKIERGEVEVDDSFVEEKMEVDTIDWKSRYEQLEKRFESLKQRVNEKYTSWVQKAKKVNENMYSLQNVISQQQSQIADLQNYCNKLEVDLQNKISSLVSSVEWYLKSMELPDEIKTDIEQQLNSIDVINPINAIDDFESLIRNIILDYDRIFLMFKGLMRQCNYEYTYE
target gene translation by spontaneous STIF assembly (SEAP) [4]: modular and effective translational regulation

B5: (GNCR)3-NSP3: trigger-inducible STIF regulator (protein)
chain: MDIEKLCKKAEEEAKEAQEKADELRQRHPDSQAAEDAEDLANLAVAAVLTACLLAQEHPNADIAKLCIKAASEAAEAASKAAELAQRHPDSQAARDAIKLASQAARAVILAIMLAAENPNADIAKLCIKAASEAAEAASKAAELAQRHPDSQAARDAIKLASQAAEAVERAIWLAAENPNADIAKKCIKAASEAAEEASKAAEEAQRHPDSQKARDEIKEASQKAEEVKERCKSASGSGGGGDVASDIEKLCKKAEEEAKEAQEKADELRQRHPDSQAAEDAEDLANLAVAAVLTACLLAQEHPNADIAKLCIKAASEAAEAASKAAELAQRHPDSQAARDAIKLASQAARAVILAIMLAAENPNADIAKLCIKAASEAAEAASKAAELAQRHPDSQAARDAIKLASQAAEAVERAIWLAAENPNADIAKKCIKAASEAAEEASKAAEEAQRHPDSQKARDEIKEASQKAEEVKERCKSASGSGGGGDVASDIEKLCKKAEEEAKEAQEKADELRQRHPDSQAAEDAEDLANLAVAAVLTACLLAQEHPNADIAKLCIKAASEAAEAASKAAELAQRHPDSQAARDAIKLASQAARAVILAIMLAAENPNADIAKLCIKAASEAAEAASKAAELAQRHPDSQAARDAIKLASQAAEAVERAIWLAAENPNADIAKKCIKAASEAAEEASKAAEEAQRHPDSQKARDEIKEASQKAEEVKERCKSASGSGGGGDVASMLKMESTQQMASSIINTSFEAAVVAATSTLELMGIQYDYNEVYTRVKSKFDYVMDDSGVKNNLLGKAATIDQALNGKFGSAARNRNWMADTRTTARLDEDVNKLRMMLSSKGIDQKMRVLNACFNVKRVPGKSSSIIKCTRLMRDKIERGEVEVDDSFVEEKMEVDTIDWKSRYEQLEKRFESLKQRVNEKYTSWVQKAKKVNENMYSLQNVISQQQSQIADLQNYCNKLEVDLQNKISSLVSSVEWYLKSMELPDEIKTDIEQQLNSIDVINPINAIDDFESLIRNIILDYDRIFLMFKGLMRQCNYEYTYE
regulation performance (fold-change, dose-dependence, activation kinetics) [5]: best regulation performance

B6: NSP3: rotaviral non-structural protein 3 (protein)
chain: LKMESTQQMASSIINTSFEAAVVAATSTLELMGIQYDYNEVYTRVKSKFDYVMDDSGVKNNLLGKAATIDQALNGKFGSAARNRNWMADTRTTARLDEDVNKLRMMLSSKGIDQKMRVLNACFNVKRVPGKSSSIIKCTRLMRDKIERGEVEVDDSFVEEKMEVDTIDWKSRYEQLEKRFESLKQRVNEKYTSWVQKAKKVNENMYSLQNVISQQQSQIADLQNYCNKLEVDLQNKISSLVSSVEWYLKSMELPDEIKTDIEQQLNSIDVINPINAIDDFESLIRNIILDYDRIFLMFKGLMRQCNYEYTYE
non-specific binding to endogenous RNA (GAPDH RNA IP/input) [6]: much less non-specific binding to endogenous RNA than PABP
